# Target: nucleosome core particle (recombinant Xenopus laevis histone octamer on 147 bp 601 DNA) (Xenopus laevis)
# Test: native gel or EMSA; as the gel shift with nucleosome cores (50 nM), at higher concentrations of HMGN1 (methods: 2-800 nM); ESI Fig. S9.3
substance,measurement,value
"full-length recombinant HMGN1 (HMGN1_1–99, unmodified) (natural protein)",stoichiometry N (HMGN1 molecules per nucleosome),> 2

# Source: paper PMC8341956
